The target in this assay is human PD-1 expressed on cells (HuT78/PD-1, NK92MI/PD-1) (human, UniProt Q15116 25-288). The experiment in a line: FACS binding (MFI). A general note: Flow cytometry measures light scatter and fluorescence of single cells or particles in a stream.

For orientation: EC50 means the concentration that produces a half-maximal response.

Sequence of human PD-1 expressed on cells (HuT78/PD-1, NK92MI/PD-1) (Q15116 25-288): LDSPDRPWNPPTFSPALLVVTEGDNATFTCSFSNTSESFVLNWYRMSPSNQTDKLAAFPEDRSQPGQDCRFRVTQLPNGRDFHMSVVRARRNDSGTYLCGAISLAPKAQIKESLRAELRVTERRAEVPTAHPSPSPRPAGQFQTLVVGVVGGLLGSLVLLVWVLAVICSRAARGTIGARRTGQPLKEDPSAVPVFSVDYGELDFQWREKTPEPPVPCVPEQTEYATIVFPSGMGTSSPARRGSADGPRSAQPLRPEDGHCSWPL

B1: murine mAb 317 (antibody, V domains shown)
VH: QVQLKESGPGLVAPSKNLSITCTVSGFSLTSYGVHWIRQPPGKGLEWLGVIWAGGSTNYNSALMSRLSISKDNSRSQVFLRMNSLQTDDTAMYYCARAYGNYWYIDVWGAGTTVTVSS
VL: DIVMTQTPKFLLVSAGDRVTITCKASQSVSNDVAWYQQKPGQSPKLLINYAFHRFTGVPDRFTGSGYGTDFIFTISTVQAEDLAVYFCHQAYSSPYTFGGGTKLEMK
On to B1, for which the response was half-maximal at 0.105 µg/mL (EC50).

Source of the values: patent US20230303689A1 (published 2023).
